From patent US20180334496A1 (KODIAK SCIENCES, published 2018)
Substitutions are numbered along the chain they refer to. “And” between values parts separate entries of the source, which are not always exact repeats. Equal entries are not always repeated.

B1: 28H31S54V59D / 101V (antibody, V domains shown)
VH: EVQLVESGGGLVQPGGSLRLSCAASGYHFTSYYMNWVRQAPGKGLEWIGDINPVTGDTDYNADFKRRFTFSLDTSKSTAYLQMNSLRAEDTAVYYCTREGPSFAYWGQGTLVTVSS
VL: DIQLTQSPSSLSASVGDRVTITCRSSQTIVHSNGDTYLEWYQQKPGKAPNLLIYKVSNRFSGVPSRFSGSGSGTDFTLTISSLQPEDFATYYCFQGSHVPVTFGQGTKVEIK
notes: KCD119 TAF variant; full antibody captured on protein A
B2: 31S48V54V59D / 101V (antibody, V domains shown)
VH: B1 VH with H28T, I48V
VL: B1 VL
notes: as for B1
B3: 28K31S54V59D / 101V (antibody, V domains shown)
VH: B1 VH with H28K
VL: B1 VL
notes: as for B1
B4: 54I59D / 32W54S60W101V (antibody, V domains shown)
VH: B1 VH with H28T, S31D, V54I
VL: B1 VL with S32W, Y54S, F60W
notes: Light label printed 32W54560W101V, read as 32W54S60W101V; also called 54I59D / 32W54560W101V
B5: 31S54I59D / 54G101V (antibody, V domains shown)
VH: B1 VH with H28T, V54I
VL: B1 VL with Y54G
notes: as for B1
B6: 28S31S54V59D / 101V (antibody, V domains shown)
VH: B1 VH with H28S
VL: B1 VL
notes: as for B1
B7: 54V59D / 32W60W101V (antibody, V domains shown)
VH: B1 VH with H28T, S31D
VL: B1 VL with S32W, F60W
notes: as for B1
B8: 28Q31S54V59D / 101V (antibody, V domains shown)
VH: B1 VH with H28Q
VL: B1 VL
notes: as for B1
B9: 54I59D / 32W33G60W101V (antibody, V domains shown)
VH: B1 VH with H28T, S31D, V54I
VL: B1 VL with S32W, N33G, F60W
notes: KCD119 TAF variant; same label printed in three rows
B10: 54I59D84T / 32W60W101V (antibody, V domains shown)
VH: B1 VH with H28T, S31D, V54I, N84T
VL: B1 VL with S32W, F60W
notes: as for B1
B11: 31S54I59D84S / 32W60W101V (antibody, V domains shown)
VH: B1 VH with H28T, V54I, N84S
VL: B1 VL with S32W, F60W
notes: Label printed 31S54I59D845, read as 84S; full antibody captured on protein A; also called 31S54I59D845 / 32W60W101V
B12: 28I31S54V59D / 101V (antibody, V domains shown)
VH: B1 VH with H28I
VL: B1 VL
notes: as for B1
B13: 31S54I59D84T / 32W60W101V (antibody, V domains shown)
VH: B1 VH with H28T, V54I, N84T
VL: B1 VL with S32W, F60W
notes: as for B1
B14: 48V54V59D / 32W60W101V (antibody, V domains shown)
VH: B1 VH with H28T, S31D, I48V
VL: B1 VL with S32W, F60W
notes: as for B1
B15: 31S54I59D / 50I60W101V (antibody, V domains shown)
VH: B1 VH with H28T, V54I
VL: B1 VL with N50I, F60W
notes: as for B1
B16: 31S34I54I59D / 32W60W101V (antibody, V domains shown)
VH: B1 VH with H28T, M34I, V54I
VL: B1 VL with S32W, F60W
notes: as for B1
B17: 31S54V59D / 32W60W101V (antibody, V domains shown)
VH: B1 VH with H28T
VL: B1 VL with S32W, F60W
notes: as for B1
B18: 31S54I59D / 32W60W101V (antibody, V domains shown)
VH: B1 VH with H28T, V54I
VL: B1 VL with S32W, F60W
notes: as for B1
B19: 28V31S54V59D / 101V (antibody, V domains shown)
VH: B1 VH with H28V
VL: B1 VL
notes: as for B1
B20: 31S54V59D / 101V (antibody, V domains shown)
VH: B1 VH with H28T
VL: B1 VL
notes: as for B1
B21: 54V59D / 101V (antibody, V domains shown)
VH: B1 VH with H28T, S31D
VL: B1 VL
notes: as for B1
B22: 34I54I59D / 32W60W101V (antibody, V domains shown)
VH: B1 VH with H28T, S31D, M34I, V54I
VL: B1 VL with S32W, F60W
notes: as for B1

How the values were obtained:
[1] = target: T1, serum purified human Complement Factor D (human, UniProt P00746 26-253); test: SPR Biacore, antibody on protein A chip, single cycle kinetics, 25 C;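 further: antibodies captured to roughly 70 RU on the protein A surface in HBS-EP+ running buffer, with kinetic constants derived by BIAevaluation fitting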
T1 construct: Serum purified protein flowed over the captured antibodies; also called CFD; human CFD
Description: (§1) Antibodies were diluted to 0.5 ug/ml in HBS-EP+ buffer and captured on a protein A chip for 25 seconds to reach approximately 70 resonance units. […] Binding kinetic information was obtained by the BIAevaluation software (GE).

[2] = target: T1, serum purified human Complement Factor D; test: SPR Biacore, antibody on protein A chip, single cycle kinetics, 37 C;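 further: antibodies captured on the protein A surface to roughly 70 RU in HBS-EP+ buffer, with rate and affinity constants fitted using BIAevaluation software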
Description: as §1

T1 sequence (P00746 26-253): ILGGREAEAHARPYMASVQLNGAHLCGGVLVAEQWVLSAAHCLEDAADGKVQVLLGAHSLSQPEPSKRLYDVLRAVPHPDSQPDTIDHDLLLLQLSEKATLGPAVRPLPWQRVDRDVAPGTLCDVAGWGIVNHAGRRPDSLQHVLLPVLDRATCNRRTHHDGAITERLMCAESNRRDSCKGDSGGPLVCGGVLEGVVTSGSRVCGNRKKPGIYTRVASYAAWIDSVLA

Binder	Kd [1]	koff [1]	kon [1]	Kd [2]	koff [2]	kon [2]
B1	0.0251 nM	0.000167 s⁻¹	6.65e+06 M⁻¹ s⁻¹	0.0257 nM	0.000443 s⁻¹	1.72e+07 M⁻¹ s⁻¹
B2	0.0169 nM	0.000101 s⁻¹	5.98e+06 M⁻¹ s⁻¹	–	–	–
B3	0.0224 nM	0.000163 s⁻¹	7.3e+06 M⁻¹ s⁻¹	–	–	–
B4	0.00858 nM	5.37e-05 s⁻¹	6.25e+06 M⁻¹ s⁻¹	0.0124 nM	0.000136 s⁻¹	1.1e+07 M⁻¹ s⁻¹
B5	0.00689 nM	8.25e-05 s⁻¹	1.2e+07 M⁻¹ s⁻¹	0.00931 nM	0.000222 s⁻¹	2.38e+07 M⁻¹ s⁻¹
B6	0.0217 nM	0.000166 s⁻¹	7.64e+06 M⁻¹ s⁻¹	0.0727 nM	0.000918 s⁻¹	1.26e+07 M⁻¹ s⁻¹
B7	0.00607 nM	4.79e-05 s⁻¹	7.88e+06 M⁻¹ s⁻¹	–	–	–
B8	0.023 nM	0.000164 s⁻¹	7.15e+06 M⁻¹ s⁻¹	0.0757 nM	0.00103 s⁻¹	1.35e+07 M⁻¹ s⁻¹
B9	0.0514 nM and 0.0534 nM and 0.0778 nM	0.0004 s⁻¹ and 0.000328 s⁻¹ and 0.000352 s⁻¹	7.78e+06 M⁻¹ s⁻¹ and 6.14e+06 M⁻¹ s⁻¹ and 4.53e+06 M⁻¹ s⁻¹	0.105 nM and 0.0979 nM and 0.135 nM	0.0012 s⁻¹ and 0.00148 s⁻¹ and 0.00117 s⁻¹	1.14e+07 M⁻¹ s⁻¹ and 1.51e+07 M⁻¹ s⁻¹ and 8.69e+06 M⁻¹ s⁻¹
B10	0.0169 nM	8.43e-05 s⁻¹	4.99e+06 M⁻¹ s⁻¹	0.0258 nM	0.000365 s⁻¹	1.41e+07 M⁻¹ s⁻¹
B11	0.0203 nM	7.76e-05 s⁻¹	3.83e+06 M⁻¹ s⁻¹	0.0235 nM	0.000209 s⁻¹	8.9e+06 M⁻¹ s⁻¹
B12	0.0177 nM	0.000134 s⁻¹	7.59e+06 M⁻¹ s⁻¹	0.0195 nM	0.00039 s⁻¹	2e+07 M⁻¹ s⁻¹
B13	0.0157 nM	6.01e-05 s⁻¹	3.83e+06 M⁻¹ s⁻¹	0.0288 nM	0.000224 s⁻¹	7.79e+06 M⁻¹ s⁻¹
B14	0.0159 nM	9.5e-05 s⁻¹	5.96e+06 M⁻¹ s⁻¹	0.0212 nM	0.000278 s⁻¹	1.31e+07 M⁻¹ s⁻¹
B15	0.00774 nM	3.98e-05 s⁻¹	5.14e+06 M⁻¹ s⁻¹	0.0276 nM	0.000256 s⁻¹	9.26e+06 M⁻¹ s⁻¹
B16	0.0172 nM	5.69e-05 s⁻¹	3.31e+06 M⁻¹ s⁻¹	0.0312 nM	0.000208 s⁻¹	6.67e+06 M⁻¹ s⁻¹
B17	0.0158 nM	8.84e-05 s⁻¹	5.58e+06 M⁻¹ s⁻¹	0.0227 nM	0.000293 s⁻¹	1.29e+07 M⁻¹ s⁻¹
B18	0.0165 nM	6.3e-05 s⁻¹	3.83e+06 M⁻¹ s⁻¹	0.0343 nM	0.000225 s⁻¹	6.55e+06 M⁻¹ s⁻¹
B19	0.00601 nM	4.76e-05 s⁻¹	7.91e+06 M⁻¹ s⁻¹	0.051 nM	0.00085 s⁻¹	1.66e+07 M⁻¹ s⁻¹
B20	0.0188 nM and 0.0176 nM	0.000131 s⁻¹ and 0.000101 s⁻¹	6.95e+06 M⁻¹ s⁻¹ and 5.71e+06 M⁻¹ s⁻¹	0.0411 nM	0.000373 s⁻¹	9.08e+06 M⁻¹ s⁻¹
B21	0.0371 nM	0.000258 s⁻¹	6.94e+06 M⁻¹ s⁻¹	–	–	–
B22	0.0211 nM	0.000136 s⁻¹	6.45e+06 M⁻¹ s⁻¹	0.0217 nM	0.000279 s⁻¹	1.29e+07 M⁻¹ s⁻¹
